Results reported in the supplement of paper PMC11246515.
± gives the standard deviation of the averaged measurements.

Experiment: total protein half-life in vivo (active degradation + dilution); higher = more stable protein
[1] = E. coli NCM3722 delta-clpP delta-lon delta-hslV, growth: N-lim chemostat, doubling time 6 h
[2] = E. coli NCM3722 delta-clpP, growth: N-lim chemostat, doubling time 6 h
[3] = E. coli NCM3722 delta-hslV, growth: N-lim chemostat, doubling time 6 h
[4] = E. coli NCM3722 delta-lon, growth: N-lim chemostat, doubling time 6 h
[5] = E. coli NCM3722 delta-smpB, growth: N-lim chemostat, doubling time 6 h
[6] = wild type E. coli NCM3722, growth: C-lim chemostat, doubling time 3 h
[7] = wild type E. coli NCM3722, growth: C-lim chemostat, doubling time 6 h
[8] = wild type E. coli NCM3722, growth: C-lim chemostat, doubling time 12 h
[9] = wild type E. coli NCM3722, growth: N-lim chemostat, doubling time 6 h
[10] = wild type E. coli NCM3722, growth: N-lim chemostat, doubling time 12 h
[11] = wild type E. coli NCM3722, growth: P-lim chemostat, doubling time 6 h
[12] = wild type E. coli NCM3722, growth: P-lim chemostat, doubling time 12 h

Sequence | total protein half-life in vivo [1] | total protein half-life in vivo [2] | total protein half-life in vivo [3] | total protein half-life in vivo [4] | total protein half-life in vivo [5] | total protein half-life in vivo [6] | total protein half-life in vivo [7] | total protein half-life in vivo [8] | total protein half-life in vivo [9] | total protein half-life in vivo [10] | total protein half-life in vivo [11] | total protein half-life in vivo [12]
MLNPIVRKFQYGQHTVTLETGMMARQATAAVMVSMDDTAVFVTVVGQKKAKPGQDFFPLTVNYQERTYAAGRIPGSFFRREGRPSEGETLIARLIDRPIRPLFPEGFVNEVQVIATVVSVNPQVNPDIVAMIGASAALSLSGIPFNGPIGAARVGYINDQYVLNPTQDELKESKLDLVVAGTEAAVLMVESEAQLLSEDQMLGAVVFGHEQQQVVIQNINELVKEAGKPRWDWQPEPVNEALNARVAALAEARLSDAYRITDKQERYAQVDVIKSETIATLLAEDETLDENELGEILHAIEKNVVRSRVLAGEPRIDGREKDMIRGLDVRTGVLPRTHGSALFTRGETQALVTATLGTARDAQVLDELMGERTDTFLFHYNFPPYSVGETGMVGSPKRREIGHGRLAKRGVLAVMPDMDKFPYTVRVVSEITESNGSSSMASVCGASLALMDAGVPIKAAVAGIAMGLVKEGDNYVVLSDILGDEDHLGDMDFKVAGSRDGISALQMDIKIEGITKEIMQVALNQAKGARLHILGVMEQAINAPRGDISEFAPRIHTIKINPDKIKDVIGKGGSVIRALTEETGTTIEIEDDGTVKIAATDGEKAKHAIRRIEEITAEIEVGRVYTGKVTRIVDFGAFVAIGGGKEGLVHISQIADKRVEKVTDYLQMGQEVPVKVLEVDRQGRIRLSIKEATEQSQPAAAPEAPAAEQGE | 6.65 ± 0.71 h | 6.67 ± 0.63 h | 5.92 ± 0.65 h | 6.01 ± 0.18 h | 5.58 ± 0.41 h | 3.25 ± 0.055 h | 6.31 ± 0.21 h | 11.5 ± 0.16 h | 5.78 ± 0.26 h | 11.8 ± 0.57 h | 6.05 ± 0.14 h | 12.4 ± 1.5 h
MNNDVFPNKFKAALAAKQVQIGCWSALSNPISTEVLGLAGFDWLVLDGEHAPNDISTFIPQLMALKGSASAPVVRVPTNEPVIIKRLLDIGFYNFLIPFVETKEEAELAVASTRYPPEGIRGVSVSHRANMFGTVADYFAQSNKNITILVQIESQQGVDNVDAIAATEGVDGIFVGPSDLAAALGHLGNASHPDVQKAIQHIFNRASAHGKPSGILAPVEADARRYLEWGATFVAVGSDLGVFRSATQKLADTFKK | 4.58 ± 0.62 h | 4.02 ± 1.4 h | 2.99 ± 0.14 h | 3.19 h | 3.51 ± 0.42 h | 3.2103 ± 7.8e-05 h | 5.123 ± 0.023 h | 9.79 ± 0.92 h | 3.355 ± 0.022 h | 7.58 h | – | 11.6 ± 0.72 h
MLIFEGKEIETDTEGYLKESSQWSEPLAVVIAENEGISLSPEHWEVVRFVRDFYLEFNTSPAIRMLVKAMANKFGEEKGNSRYLYRLFPKGPAKQATKIAGLPKPVKCI [P0AB18] | 4.6 ± 0.063 h | 3.82 ± 0.21 h | 4.08 ± 0.12 h | 6.01 ± 1.2 h | 4.08 ± 0.076 h | 2.84 ± 0.18 h | 5.35 ± 0.47 h | 12.8 ± 2.9 h | 3.49 ± 0.44 h | 6.82 ± 0.45 h | 4.73 ± 0.007 h | 10.19 ± 0.053 h
MSQDNNFSQGPVPQSARKGVLALTFVMLGLTFFSASMWTGGTLGTGLSYHDFFLAVLIGNLLLGIYTSFLGYIGAKTGLTTHLLARFSFGVKGSWLPSLLLGGTQVGWFGVGVAMFAIPVGKATGLDINLLIAVSGLLMTVTVFFGISALTVLSVIAVPAIACLGGYSVWLAVNGMGGLDALKAVVPAQPLDFNVALALVVGSFISAGTLTADFVRFGRNAKLAVLVAMVAFFLGNSLMFIFGAAGAAALGMADISDVMIAQGLLLPAIVVLGLNIWTTNDNALYASGLGFANITGMSSKTLSVINGIIGTVCALWLYNNFVGWLTFLSAAIPPVGGVIIADYLMNRRRYEHFATTRMMSVNWVAILAVALGIAAGHWLPGIVPVNAVLGGALSYLILNPILNRKTTAAMTHVEANSVE [P0AA82] | – | 0.878 ± 0.056 h | – | – | – | 2.01 h | – | – | – | – | – | –
MGIIAQNKISSLGMLFGAIALMMGIIHFSFGPFSAPPPTFESIVADKTAEIKRGLLAGIKGEKITTVEKKEDVDVDKILNQSGIALAIAALLCAFIGGMRKENRWGIRGALVFGGGTLAFHTLLFGIGIVCSILLIFLIFSFLTGGSLV | – | – | – | – | – | – | – | – | 5.09 h | – | – | –
MAANAFVRARIDEDLKNQAADVLAGMGLTISDLVRITLTKVAREKALPFDLREPNQLTIQSIKNSEAGIDVHKAKDADDLFDKLGI | 2.38 ± 0.28 h | – | – | – | – | – | 0.925 ± 0.13 h | 0.789 h | 0.421 h | 4.6 h | 0.432 h | 1.38 h
MSRPTIIINDLDAERIDILLEQPAYAGLPIADALNAELDRAQMCSPEEMPHDVVTMNSRVKFRNLSDGEVRVRTLVYPAKMTDSNTQLSVMAPVGAALLGLRVGDSIHWELPGGVATHLEVLELEYQPEAAGDYLL [P0AFW4] | 4.22 ± 0.14 h | – | – | 1.49 h | – | 1.02 ± 0.099 h | 1.55 ± 0.086 h | 2.08 ± 0.0038 h | 1.43 ± 0.68 h | – | 1.36 h | 2.53 h
